# Data from the Human Domainome abundance scans (Beltran et al. 2025).
# ± gives the uncertainty stated by the source.
# B1: LIM and senescent cell antigen-like-containing domain protein 2, residues 13 to 71; numbered along this chain, Q7Z4I7 (parent)
# chain: AVCQRCQARFSPAERIVNSNGELYHEHCFVCAQCFRPFPEGLFYEFEGRKYCEHDFQML
# Variants of: B1
# Test: abundance fitness (aPCA) (normalised: wild type 0, dead -1); higher = more abundant; growth selection in yeast, the domain comes from the species named
# Conditions: Homo sapiens
row,Variant,abundance fitness
1,AVCQRCQARFSPAERNVNSNGELYHEHCFVCAQCFRPFPEGLFYEFEGRKYCEHDFQML [I16N],-0.174 ± 0.065
2,AVCQRCQARFSPAERSVNSNGELYHEHCFVCAQCFRPFPEGLFYEFEGRKYCEHDFQML [I16S],-0.04 ± 0.043
3,AVCQRCQARFSPAERPVNSNGELYHEHCFVCAQCFRPFPEGLFYEFEGRKYCEHDFQML [I16P],-0.104 ± 0.056
4,AVCQRCQARFSPAERWVNSNGELYHEHCFVCAQCFRPFPEGLFYEFEGRKYCEHDFQML [I16W],-0.146 ± 0.063
5,AVCQRCQARFSPAERDVNSNGELYHEHCFVCAQCFRPFPEGLFYEFEGRKYCEHDFQML [I16D],-0.267 ± 0.091
6,AVCQRCQARFSPAERGVNSNGELYHEHCFVCAQCFRPFPEGLFYEFEGRKYCEHDFQML [I16G],-0.178 ± 0.085
7,AVCQRCQARFSPAERRVNSNGELYHEHCFVCAQCFRPFPEGLFYEFEGRKYCEHDFQML [I16R],-0.114 ± 0.048
8,AVCQRCQARFSPAERAVNSNGELYHEHCFVCAQCFRPFPEGLFYEFEGRKYCEHDFQML [I16A],-0.1 ± 0.058
9,AVCQRCQARFSPAERLVNSNGELYHEHCFVCAQCFRPFPEGLFYEFEGRKYCEHDFQML [I16L],-0.023 ± 0.042
10,AVCQRCQARFSPAERVVNSNGELYHEHCFVCAQCFRPFPEGLFYEFEGRKYCEHDFQML [I16V],-0.194 ± 0.059
11,AVCQRCQARFSPAERKVNSNGELYHEHCFVCAQCFRPFPEGLFYEFEGRKYCEHDFQML [I16K],0.098 ± 0.057
12,AVCQRCQARFSPARRIVNSNGELYHEHCFVCAQCFRPFPEGLFYEFEGRKYCEHDFQML [E14R],-0.651 ± 0.071
13,AVCQRCQARFSPATRIVNSNGELYHEHCFVCAQCFRPFPEGLFYEFEGRKYCEHDFQML [E14T],-0.242 ± 0.082
14,AVCQRCQARFSPANRIVNSNGELYHEHCFVCAQCFRPFPEGLFYEFEGRKYCEHDFQML [E14N],-0.343 ± 0.14
15,AVCQRCQARFSPAFRIVNSNGELYHEHCFVCAQCFRPFPEGLFYEFEGRKYCEHDFQML [E14F],-0.658 ± 0.17
16,AVCQRCQARFSPASRIVNSNGELYHEHCFVCAQCFRPFPEGLFYEFEGRKYCEHDFQML [E14S],-0.034 ± 0.064
17,AVCQRCQARFSPAPRIVNSNGELYHEHCFVCAQCFRPFPEGLFYEFEGRKYCEHDFQML [E14P],-0.577 ± 0.11
18,AVCQRCQARFSPAVRIVNSNGELYHEHCFVCAQCFRPFPEGLFYEFEGRKYCEHDFQML [E14V],-0.184 ± 0.067
19,AVCQRCQARFSPAWRIVNSNGELYHEHCFVCAQCFRPFPEGLFYEFEGRKYCEHDFQML [E14W],-0.428 ± 0.087
20,AVCQRCQARFSPALRIVNSNGELYHEHCFVCAQCFRPFPEGLFYEFEGRKYCEHDFQML [E14L],-0.512 ± 0.07
21,AVCQRCQARFSPAYRIVNSNGELYHEHCFVCAQCFRPFPEGLFYEFEGRKYCEHDFQML [E14Y],-0.224 ± 0.12
22,AVCQRCQARFSPAQRIVNSNGELYHEHCFVCAQCFRPFPEGLFYEFEGRKYCEHDFQML [E14Q],-0.106 ± 0.079
23,AVCQRCQARFSPAGRIVNSNGELYHEHCFVCAQCFRPFPEGLFYEFEGRKYCEHDFQML [E14G],-0.05 ± 0.076

row,Variant,abundance fitness
1,AVCQRCQARFSPAIRIVNSNGELYHEHCFVCAQCFRPFPEGLFYEFEGRKYCEHDFQML [E14I],-0.611 ± 0.19
2,AVCQRCQARFSPAHRIVNSNGELYHEHCFVCAQCFRPFPEGLFYEFEGRKYCEHDFQML [E14H],-0.451 ± 0.27
3,AVCQRCQARFSPAMRIVNSNGELYHEHCFVCAQCFRPFPEGLFYEFEGRKYCEHDFQML [E14M],-0.41 ± 0.097
4,AVCQRCQARFSPAETIVNSNGELYHEHCFVCAQCFRPFPEGLFYEFEGRKYCEHDFQML [R15T],0.037 ± 0.06
5,AVCQRCQARFSPAEKIVNSNGELYHEHCFVCAQCFRPFPEGLFYEFEGRKYCEHDFQML [R15K],0.147 ± 0.075
6,AVCQRCQARFSPAEIIVNSNGELYHEHCFVCAQCFRPFPEGLFYEFEGRKYCEHDFQML [R15I],-0.017 ± 0.067
7,AVCQRCQARFSPAENIVNSNGELYHEHCFVCAQCFRPFPEGLFYEFEGRKYCEHDFQML [R15N],-0.184 ± 0.1
8,AVCQRCQARFSPAEVIVNSNGELYHEHCFVCAQCFRPFPEGLFYEFEGRKYCEHDFQML [R15V],-0.107 ± 0.05
9,AVCQRCQARFSPAEPIVNSNGELYHEHCFVCAQCFRPFPEGLFYEFEGRKYCEHDFQML [R15P],-0.03 ± 0.076
10,AVCQRCQARFSPAEHIVNSNGELYHEHCFVCAQCFRPFPEGLFYEFEGRKYCEHDFQML [R15H],-0.168 ± 0.1
11,AVCQRCQARFSPAESIVNSNGELYHEHCFVCAQCFRPFPEGLFYEFEGRKYCEHDFQML [R15S],0.098 ± 0.045
12,AVCQRCQARFSPAEMIVNSNGELYHEHCFVCAQCFRPFPEGLFYEFEGRKYCEHDFQML [R15M],-0.069 ± 0.076
13,AVCQRCQARFSPAEGIVNSNGELYHEHCFVCAQCFRPFPEGLFYEFEGRKYCEHDFQML [R15G],-0.144 ± 0.054
14,AVCQRCQARFSPAEEIVNSNGELYHEHCFVCAQCFRPFPEGLFYEFEGRKYCEHDFQML [R15E],0.01 ± 0.069
15,AVCQRCQARFSPAEQIVNSNGELYHEHCFVCAQCFRPFPEGLFYEFEGRKYCEHDFQML [R15Q],-0.021 ± 0.065
16,AVCQRCQARFSPAEWIVNSNGELYHEHCFVCAQCFRPFPEGLFYEFEGRKYCEHDFQML [R15W],-0.595 ± 0.085
17,AVCQRCQARFSPAEAIVNSNGELYHEHCFVCAQCFRPFPEGLFYEFEGRKYCEHDFQML [R15A],-0.178 ± 0.06
18,AVCQRCQARFSPAEDIVNSNGELYHEHCFVCAQCFRPFPEGLFYEFEGRKYCEHDFQML [R15D],-0.009 ± 0.078
19,AVCQRCQARFSPAELIVNSNGELYHEHCFVCAQCFRPFPEGLFYEFEGRKYCEHDFQML [R15L],-0.255 ± 0.049
20,AVCQRCQARFSPAEFIVNSNGELYHEHCFVCAQCFRPFPEGLFYEFEGRKYCEHDFQML [R15F],-0.467 ± 0.085
21,AVCQRCQARFSPAECIVNSNGELYHEHCFVCAQCFRPFPEGLFYEFEGRKYCEHDFQML [R15C],-0.198 ± 0.072
22,AVCQRCQARFSPAEYIVNSNGELYHEHCFVCAQCFRPFPEGLFYEFEGRKYCEHDFQML [R15Y],-0.153 ± 0.083
